The values that follow come from patent US20260042862A1 (AGENCY FOR SCIENCE TECHNOLOGY AND RESEARCH, published 2026).

The target of experiment [1] is T1, recombinant human GPC-3 protein (human, UniProt P51654 25-559, limits assumed).
T1 construct: also called glypican-3; recombinant GPC-3 protein
The experiment in a line: binding ELISA with biotin-hGPC-3, EC50 calculated from the curves of FIG. 1A to 1C.

For experiment [2], the target named is T1, recombinant human GPC-3 protein. The experiment can be described thus: SPR, Biacore T200. The protocol:
Affinity of 24 anti-GPC-3 IgG₁ antibodies was measured via Surface Plasmon Resonance (SPR) analysis using Biacore™ T200 system and shown in Table E3 (below).

B1: anti-GPC-3 IgG1 clone 4H1 (antibody, V domains shown)
VH: EVQLVQSGGGVVQPGRSLRLSCAASGFTFSSYAMHWVRQAPGKGLEWVAVISYDGSNKYYADSVKGRFTISRDNSKNTLYLQMNSLRAEDTAVYYCARAPGLEDYWGQGTL
VL: DIQMTQSPSSLSASVGDRVTITCRASQSISSYLNWYQQKPGTAPKLLIYAASSSLQSGVPSRFSGSGSGTDFALTISSLQPEDFATYYCLQDYNYPLTFGGGTK
notes: Tested as IgG1; also called monoclonal antibody 4H1
As usually defined, the EC50 is the concentration needed to bring the measured effect to its halfway point. Broadly, the Kd is a measure of binding affinity in units of concentration. By koff is commonly meant a measure of how fast the partners let go of each other. Broadly, the kon is the second-order rate constant of association. As for B1, the EC50 in experiment [1] is 4.1 nM. In addition, in experiment [2], the Kd is 44.2 nM, the off-rate constant (koff) was determined as 0.0137 s⁻¹ and the kon worked out at 311000 M⁻¹ s⁻¹.

B2: anti-GPC-3 IgG1 clone 2F1 (antibody, V domains shown)
VH: EVQLVQSGAEVKKPGSSVKVSCKASGGTFSSYAISWVRQAPGQGLEWMGGIIPIFGTANYAQKFQGRVTITADESTSTAYMELSSLRSEDTAVYYCARDSPYYYYMDVWGKGTT
VL: DVVMTQSPLFLPVTLGQPASISCRSSQSLVYSDGNTYLSWFQQRPGQSPRRLVYKVSSRDSGVPDRFSGSGSGTDFTLKISRVEAEDVGVYYCMQGTHWPRTFGQGTK
notes: Tested as IgG1; also called monoclonal antibody 2F1
Take B2: the EC50 in experiment [1] was 2.61 nM. In addition, in experiment [2], the Kd was found to be 14.7 nM, the koff was 0.00181 s⁻¹ and the kon amounted to 124000 M⁻¹ s⁻¹.

B3: anti-GPC-3 IgG1 clone 4G11 (antibody, V domains shown)
VH: QVQLQESGPGLVKPSGTLSLTCAVSGGSISSSNWWSWVRQPPGKGLEWIGEIYHSGSTNYNPSLKSRVTISVDKSKNQFSLKLSSVTAADTAVYYCARDTSGVAFDYWGQGTL
VL: EIVLTQSPGTLSLSPGERATLSCRASQSVSSSYLAWYQQKPGQAPRLLIYGASSRATGIPDRFSGGGSGTDFTLTISRLEPEDSAVYYCQQYDHSPTFGQGTK
notes: Tested as IgG1; also called monoclonal antibody 4G11
For the molecule B3, the EC50 in experiment [1] is 7.59 nM. Also, in experiment [2], the equilibrium dissociation constant (Kd) stood at 15.5 nM, the koff stood at 0.00229 s⁻¹ and the kon was 147000 M⁻¹ s⁻¹.

B4: anti-GPC-3 IgG1 clone 4A5 (antibody, V domains shown)
VH: EVQLVQSGAEVKKPGASVKVSCKASGYTFTSYGISWVRQAPGQGLEWMGWISAYNGNTNYAQKLQGRVTMTTDTSTSTAYMELRSLRSDDTAVYYCARDGLSSSWFYYYYGMDVWGQGTT
VL: not shown
notes: Tested as IgG1; also called monoclonal antibody 4A5
Regarding B4, the EC50 in experiment [1] was 15.6 nM. For the same molecule, in experiment [2], the Kd came to 12.5 nM, the koff was found to be 0.000946 s⁻¹ and the kon was found to be 75700 M⁻¹ s⁻¹.

B5: anti-GPC-3 IgG1 clone 1H10 (antibody, V domains shown)
VH: QLQLQESGGGLVQPGGSLRLSCAASGFTFSSYVMSWVRQAPGKGLEWVSTISGSGGSTYYADSVKGRFTISRDNSKNTLYLQMSSLRAEDTAVYYCVMGWYFDLWGRGTL
VL: EIVLTQSPGTLSLSPGERATLSCRASQSVSSSYLAWYQQKPGQAPRLLIYDASNRATGIPARFSGSGSGTDFTLTISSLEPEDFAVYYCQQRSNWPPRATFGQGTR
notes: Tested as IgG1; also called monoclonal antibody 1H10
In the case of B5, the half-maximal effective concentration (EC50) in experiment [1] is 1.65 nM. Also, in experiment [2], the Kd worked out at 19.7 nM, the koff is 0.0147 s⁻¹ and the kon is 748000 M⁻¹ s⁻¹.

B6: anti-GPC-3 IgG1 clone 3A9 (antibody, V domains shown)
VH: QVQLQQWGAGLLKPSETLSLTCAVYGGSFSGYYWSWIRQPPGKGLEWIGEINHSGSTNYNPSLKSRVTISVDTSKNQFSLKLSSVTAADTAVYYCARLYKRRPFDYWGQGTL
VL: not shown
notes: Tested as IgG1; also called monoclonal antibody 3A9
Consider B6, for which the EC50 in experiment [1] is 10.8 nM. In addition, in experiment [2], the Kd was 12.4 nM, the koff was 0.00188 s⁻¹ and the kon came to 151000 M⁻¹ s⁻¹.

B7: anti-GPC-3 IgG1 clone 1E1 (antibody, V domains shown)
VH: QVQLQQWGAGLLKPSETLSLTCAVYGGSFSGYYWSWIRQPPGKGLEWIGEINHSGSTNYNPSLKSRVTISVDTSKNQFSLKLSSVTAADTAVYYCARLYKRRPFDYWGQGTL
VL: VTTLTQSPGTLSLSPGERATLSCRASESVSSRYLAWYQQRPGQAPRLLIYGASRRATGSPERFSGGGSGTDFTLTISRLEPEDFAVYYCQHYGNSPGTFGQGTK
notes: Tested as IgG1; also called monoclonal antibody 1E1
For the molecule B7, in experiment [1], the EC50 is 50.1 nM. Moreover, in experiment [2], the Kd amounted to 16.2 nM, the koff was found to be 0.00233 s⁻¹ and the kon was found to be 144000 M⁻¹ s⁻¹.

B8: anti-GPC-3 IgG1 clone 1F4 (antibody, V domains shown)
VH: QVQLQQWGAGLLKPSETLSLTCAVYGGSFSGYYWSWIRQPPGKGLEWIGEINHSGSTNYNPSLKSRVTISVDTSKNQFSLKLSSVTVADTAVYYCARLYKRRPFDYWGQGTL
VL: ETTLTQSPGTLSLSPGERATLSCRASQSVSSTYLAWYQQKPGQAPRLLIYGASRRATGSPERFSGGGSGTDFTLTISRLEPEDFAVYYCQHYGNSPGTFGQGTK
notes: Tested as IgG1; also called monoclonal antibody 1F4
As to B8, the EC50 in experiment [1] was 10.3 nM. Besides, in experiment [2], the Kd came out at 7.2 nM, the koff was 0.00129 s⁻¹ and the kon came to 179000 M⁻¹ s⁻¹.

B9: anti-GPC-3 IgG1 clone 1A12 (antibody, V domains shown)
VH: QVQLQQWGAGLLKPSETLSLTCAAYGGSFSGYYWSWIRQPPGKGLEWIGEINHSGSTNYNPSLKSRVTISVDTSKNQFSLKLSSVTAADTAVYYCARLYKRRPFDYWGQGTL
VL: ETTLTQSPGTLSLSPGERATLSCRASQSISSIYLAWYQQKPGQAPRLLIYGASRRATGIPDRFSGSGSGTDFTLTISRLEPEDFAVYYCQQYGSSLRTFGQGTK
notes: Tested as IgG1; also called monoclonal antibody 1A12
Regarding B9, the EC50 in experiment [1] is 10.2 nM. For the same molecule, in experiment [2], the Kd turned out to be 27.6 nM, the koff worked out at 0.00315 s⁻¹ and the kon is 114000 M⁻¹ s⁻¹.

B10: anti-GPC-3 IgG1 clone 3G12 (antibody, V domains shown)
VH: QVQLQQWGAGLLKPSETLSLTCAVYGGSFSGYYWSWIRQPPGKGLEWIGEINHSGSTNYNPSLKSRVTISVDTSKNQFSLKLSSVTAADTAVYYCARLYKRRPFDYWGQGTL
VL: ETTLTQSPGTLSLSPGERATLSCRASQSVSSSYLAWYQQKRGQAPRLLIYGASRRATGIPDRFSGSGSGSDFTLTISRLEPEDFAVYYCQQYGSSPSTFGQGTK
notes: Tested as IgG1; also called monoclonal antibody 3G12
Turning to B10, in experiment [1], the EC50 is 11 nM. In addition, in experiment [2], the Kd was 12.5 nM, the koff amounted to 0.00169 s⁻¹ and the kon was 135000 M⁻¹ s⁻¹.

B11: anti-GPC-3 IgG1 clone 4G4 (antibody, V domains shown)
VH: QVQLQQWGAGLLKPSETLSLTCAVYGGSFSGYYWSWIRQPPGKGLEWIGEINHSGSTNYNPSLKSRVTISVDTSKNQFSLKLSSVTAADTAVYYCARLYKRRPFDYWGQGTL
VL: ETTLTQSPGTLSLSPGERATLSCRASQSVSSSYLAWYQQKPGQAPRLLIYNASRRATGIPDRFSGSGSGADFTLTISRLDPEDFAVYFCQQYGSSPQTFGQGTK
notes: Tested as IgG1; also called monoclonal antibody 4G4
Regarding B11, the EC50 in experiment [1] is 12.3 nM. In addition, in experiment [2], the Kd is 12.9 nM, the koff turned out to be 0.00195 s⁻¹ and the kon turned out to be 151000 M⁻¹ s⁻¹.

B12: anti-GPC-3 IgG1 clone 2B5 (antibody, V domains shown)
VH: QVQLQESGGGVVQPGRSLRLSCAASGFTFSSYAMHWVRQAPGKGLEWVAVISYDGSNKYYADSVKGRFTISRDNSKNTLYLQMNSLRAEDTAVYYCAKEGTYYYDSSGYWDYYYGMDVWGQGTT
VL: DVVMTQSPLSLPVTPGEPASISCRSSQSLLDSDGYNFLDWYVQKPGQSPQRLIYLGSIRASGVPDRFSGSGSGTDFTLKISRVEADDVGVYYCMQALQTPWTFGQGTK
notes: Tested as IgG1; also called monoclonal antibody 2B5
For B12, the EC50 in experiment [1] is 11.9 nM. Further, in experiment [2], the Kd came to 12.4 nM, the koff was determined as 0.0038 s⁻¹ and the kon worked out at 306000 M⁻¹ s⁻¹.

B13: anti-GPC-3 IgG1 clone 4A12 (antibody, V domains shown)
VH: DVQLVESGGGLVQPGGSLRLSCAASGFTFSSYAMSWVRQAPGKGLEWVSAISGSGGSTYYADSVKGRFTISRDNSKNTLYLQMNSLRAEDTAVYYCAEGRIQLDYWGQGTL
VL: LPVLTQPPSVSVSPGQTARITCSGYELGDKYAFWYQQKPGQSPVLVIYQDTKRPSGIPERFSGSSSGDTATLIISGTQILDEADYYCQAWDSSTHVVFGGGTK
notes: Tested as IgG1; also called monoclonal antibody 4A12
On to B13, for which the EC50 in experiment [1] is 6.61 nM. Moreover, in experiment [2], the Kd came out at 22.9 nM, the koff was found to be 0.00609 s⁻¹ and the kon came to 266000 M⁻¹ s⁻¹.

B14: anti-GPC-3 IgG1 clone 3C12 (antibody, V domains shown)
VH: QVTLKESGPTLVKPTQTLTLTCTFSGFSLSTSGVGVGWIRQPPGKALEWLALIYWNDDKRYSPSLKSRLTITKDTSKNQVVLTMTNMDPVDTATYYCAHSRIAARRVLDYWGQGTL
VL: QSVLTQPPSASVAPGKTARITCGGNNIGSKSVHWYQQKPGQSPVLVIYQDTKRPSGIPERFSGSNSGNTATLTISGAQPMDEADYYCQAWYSTIMVFGGGTK
notes: Tested as IgG1; also called monoclonal antibody 3C12
As to B14, the EC50 in experiment [1] is 6.76 nM. In addition, in experiment [2], the Kd is 31.2 nM, the koff was 0.00783 s⁻¹ and the kon was determined as 251000 M⁻¹ s⁻¹.

B15: anti-GPC-3 IgG1 clone 1C4 (antibody, V domains shown)
VH: QVQLVQSGGGLVKPGRSLRLSCTASGFTFGDYAMHWVRQAPGKGLEWVAVISYDGSNKYYADSVKGRFTISRDNSKNTLYLQMNSLRAEDTAVYYCARDYGDYYRPYGMDVWGQGTT
VL: DIQMTQSPSTLSASVGDRVTITCRASQSISKWLAWYQHKPGKAPKVLIYKASTLQSGVPSRFSGSGSGTEFTLTISSLQPEDFATYYCQQLNSYPLTFGGGTK
notes: Tested as IgG1; also called monoclonal antibody 1C4
B15: in experiment [1], the EC50 was 1.95 nM. Moreover, in experiment [2], the equilibrium dissociation constant (Kd) amounted to 14.1 nM, the koff was 0.0134 s⁻¹ and the kon was 949000 M⁻¹ s⁻¹.

B16: anti-GPC-3 IgG1 clone 3C6 (antibody, V domains shown)
VH: QVQLQESGGGVVQPGRSLRLSCAASGFTFSSYAMHWVRQAPGKGLEWVAVISYDGSNKYYADSVKGRFTISRDNSKNTLYLQMNSLRAEDTAVYYCAYGRYNWNLYFDYWGQGTL
VL: NFMLTQPHSVSESPGKTVTISCTGSSGSIASNYVQWYQQRPGSVPTTVIYEDNQRPSGVPDRFSGSIDSSSNSASLTISGLKTEDEADYYCQSFDSSNYWVFGGGTK
notes: Tested as IgG1; also called monoclonal antibody 3C6
On to B16, for which the EC50 in experiment [1] was 20.9 nM. In addition, in experiment [2], the Kd came out at 8.18 nM, the koff was found to be 0.000472 s⁻¹ and the kon is 57700 M⁻¹ s⁻¹.

B17: anti-GPC-3 IgG1 clone 4F9 (antibody, V domains shown)
VH: EVQLVQSGAEVKKPGASVKVSCKASGYTFRNYGISWVRQAPGQGLEWMGWISAYNGNTNYAQKLQGRVTMTTDTSTSTAYMELRSLRSDDTAVYYCARADSSSWYVGTYYYYYGMDVWGQGTT
VL: not shown
notes: Tested as IgG1; also called monoclonal antibody 4F9
Take B17: in experiment [1], the EC50 is 5.29 nM. In addition, in experiment [2], the Kd is 10.5 nM, the koff was found to be 0.00172 s⁻¹ and the kon is 164000 M⁻¹ s⁻¹.

B18: anti-GPC-3 IgG1 clone 3D12 (antibody, V domains shown)
VH: EVQLVQSGAEVKKPGSSVKVSCKASGGTFSSYAISWVRQAPGQGLEWMGGIIPIFGTANYAQKFQGRVTITADKSTSTAYMELSSLRSEDTAVYYCARGIAARPSYYYYMDVWGKGTT
VL: not shown
notes: Tested as IgG1; also called monoclonal antibody 3D12
Regarding B18, the EC50 in experiment [1] is 45.5 nM. Further, in experiment [2], the Kd amounted to 32.4 nM, the koff amounted to 0.0035 s⁻¹ and the kon is 108000 M⁻¹ s⁻¹.
